The experiment concerns the target T1, human ADAM8 (human) (UniProt P78325).
T1 sequence: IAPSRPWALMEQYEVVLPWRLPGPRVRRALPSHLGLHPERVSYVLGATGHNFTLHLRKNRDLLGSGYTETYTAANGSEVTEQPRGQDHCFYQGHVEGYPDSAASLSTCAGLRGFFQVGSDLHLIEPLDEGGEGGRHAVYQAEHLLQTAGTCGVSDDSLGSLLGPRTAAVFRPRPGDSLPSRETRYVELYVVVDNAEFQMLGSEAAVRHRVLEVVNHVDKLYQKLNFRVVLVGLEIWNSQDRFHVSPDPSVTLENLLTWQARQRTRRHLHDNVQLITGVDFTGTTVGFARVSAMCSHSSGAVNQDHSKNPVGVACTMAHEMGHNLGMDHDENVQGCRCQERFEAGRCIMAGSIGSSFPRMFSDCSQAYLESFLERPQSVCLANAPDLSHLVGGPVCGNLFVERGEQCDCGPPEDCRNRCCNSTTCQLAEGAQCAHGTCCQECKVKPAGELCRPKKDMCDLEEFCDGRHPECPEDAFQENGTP
Description: cell-based or functional assay.

“And” between values parts separate entries of the source, which are not always exact repeats. Equal values may be shown once.

B1: ADAM8 prodomain peptide SEQ ID NO: 4 (peptide, not shown: small tags and cut ends)
chain: MIAPSRPWALMEQYEVVLPRRLPGPRVRAALPSHLGLHPERVSYVLGATGHNFTLHLRKNRDLLGSGYTETYTAANGSEVTEQPRGQDHSFYQGHVEGYPDSAASLSTSAGLRGFFQVGSDLHLIEPLDEGGEGGRHAVYQAEHLLQTAGTSGVSDDSLGSLLGPRTAAVFRPRPGDSLPS
On to B1, for which the percent inhibition of ADAM8 (cleavage of fluorescence energy transfer substrate PEPDAB064 or PEPDAB013) (% inhibition at 5 uM) stood at 40.

B2: SEQ ID NO: 15 (pegylated at C-terminus) (peptide, part only; not given: added cysteine residues and His tag, not shown: small tags and cut ends)
chain, part: MIAPSRPWALMEQYEVVLPRRLPGPRVRGALPSHLGLHPERVSYVLGATGHNFTLHLRKNRDLLGSGYTETYTAANGSEVTEQPRGQDHSFYQGHVEGYPDSAASLSTSAGLRGFFQVGSDLHLIEPLDEGGEGGRHAVYQAEHLLQTAGTSGVSDDSLGSLLGPRTAAVFRPRPGDSLPS
modifications: 5 kDa maleimide PEG on an added cysteine near the C-terminus
For the molecule B2, the IC50 for inhibition of ADAM8 (cleavage of fluorescence energy transfer substrate PEPDAB064 or PEPDAB013) is 1800 nM and 3000 nM.

B3: ADAM8 prodomain peptide SEQ ID NO: 14 (peptide, not shown: small tags and cut ends)
chain: MIAPSRPWALMEQYEVVLPRRLPGPRVRRALPSHLGLHPERVSYVLGATGHNFTLHLRKNRDLLGSGYTETYTAANGSEVTEQPRGQDHCFYQGHVEGYPDSAASLSTCAGLRGFFQVGSDLHLIEPLDEGGEGGRHAVYQAEHLLQTAGTCGVSDDSLGSLLGPRTAAVFRPRPGDSLPS
Turning to B3, the IC50 for inhibition of ADAM8 (cleavage of fluorescence energy transfer substrate PEPDAB064 or PEPDAB013) was 1400 nM and 2300 nM.

B4: ADAM8 prodomain peptide SEQ ID NO: 16 (peptide, not shown: small tags and cut ends)
chain: MIAPSRPWALMEQYEVVLPRRLPGPRVRRALPSHLGLHPERVSYVLGATGHNFTLHLRKNRDLLGSGYTETYTAANGSEVTEQPRGQDHCLYQGHVEGYPDSAASLSTCAGLRGFFQVGSDLHLIEPLDEGGEGGRHAVYQAEHLLQTAGTCGVSDDSLGSLLGPRTAAVFRPRPGDSLPS
B4 returned an IC50 for inhibition of ADAM8 (cleavage of fluorescence energy transfer substrate PEPDAB064 or PEPDAB013) of 400 nM.

B5: ADAM8 prodomain peptide SEQ ID NO: 17 (peptide, not shown: small tags and cut ends)
chain: MIAPSRPWALMEQYEVVLPWRLPGPKVRKALPSHLGLHPERVSYVLGATGHNFTLHLRKNRDLLGSGYTETYTAANGSEVTEQPRGQDHSFYQGHVEGYPDSAASLSTSAGLRGFFQVGSDLHLIEPLDEGGEGGRHAVYQAEHLLQTAGTSGVSDDSLGSLLGPRTAAVFRPRPGDSLPS
The molecule B5 returned a percent inhibition of ADAM8 (cleavage of fluorescence energy transfer substrate PEPDAB064 or PEPDAB013) (% inhibition at 4.8 uM) of 51.

B6: ADAM8 prodomain peptide SEQ ID NO: 15 (peptide, not shown: small tags and cut ends)
chain: MIAPSRPWALMEQYEVVLPRRLPGPRVRGALPSHLGLHPERVSYVLGATGHNFTLHLRKNRDLLGSGYTETYTAANGSEVTEQPRGQDHSFYQGHVEGYPDSAASLSTSAGLRGFFQVGSDLHLIEPLDEGGEGGRHAVYQAEHLLQTAGTSGVSDDSLGSLLGPRTAAVFRPRPGDSLPS
The molecule B6 came in with a percent inhibition of ADAM8 (cleavage of fluorescence energy transfer substrate PEPDAB064 or PEPDAB013) (% inhibition at 4.8 uM) of 45.

B7: wild type human ADAM8 prodomain peptide SEQ ID NO: 2 (peptide, not shown: small tags and cut ends)
chain: MIAPSRPWALMEQYEVVLPWRLPGPRVRRALPSHLGLHPERVSYVLGATGHNFTLHLRKNRDLLGSGYTETYTAANGSEVTEQPRGQDHCFYQGHVEGYPDSAASLSTCAGLRGFFQVGSDLHLIEPLDEGGEGGRHAVYQAEHLLQTAGTCGVSDDSLGSLLGPRTAAVFRPRPGDSLPS
Regarding B7, the IC50 for inhibition of ADAM8 (cleavage of fluorescence energy transfer substrate PEPDAB064 or PEPDAB013) is 2800 nM and 2300 nM.

B8: SEQ ID NO: 17 (Pegylated on N-terminus) (peptide, part only; not given: added cysteine residues and His tag, not shown: small tags and cut ends)
chain, part: MIAPSRPWALMEQYEVVLPWRLPGPKVRKALPSHLGLHPERVSYVLGATGHNFTLHLRKNRDLLGSGYTETYTAANGSEVTEQPRGQDHSFYQGHVEGYPDSAASLSTSAGLRGFFQVGSDLHLIEPLDEGGEGGRHAVYQAEHLLQTAGTSGVSDDSLGSLLGPRTAAVFRPRPGDSLPS
modifications: 5 kDa maleimide PEG on an introduced cysteine near the N-terminus
For the molecule B8, the IC50 for inhibition of ADAM8 (cleavage of fluorescence energy transfer substrate PEPDAB064 or PEPDAB013) is 24000 nM.

B9: SEQ ID NO: 14 (pegylated on 3 cysteines) (peptide, not shown: small tags and cut ends)
chain: MIAPSRPWALMEQYEVVLPRRLPGPRVRRALPSHLGLHPERVSYVLGATGHNFTLHLRKNRDLLGSGYTETYTAANGSEVTEQPRGQDHCFYQGHVEGYPDSAASLSTCAGLRGFFQVGSDLHLIEPLDEGGEGGRHAVYQAEHLLQTAGTCGVSDDSLGSLLGPRTAAVFRPRPGDSLPS
modifications: 2 kDa maleimide PEG on all three cysteines (cysteines 105, 124 and 167 of SEQ ID NO: 1 numbering; positions 90, 109 and 152 of SEQ ID NO: 14)
For B9, the IC50 for inhibition of ADAM8 (cleavage of fluorescence energy transfer substrate PEPDAB064 or PEPDAB013) was 2700 nM and 2300 nM.

These data come from US20220213169A1.
